Assay results published in publication PMC3220798 (2011).

Key:
PvdQ [1] = biological target: T1, PvdQ (Pseudomonas aeruginosa, UniProt Q9I194); assay: co-crystal structure; assay type: biochemical
PvdQ [2] = biological target: T1, PvdQ; assay: crystal structure, co-purified ligand; assay type: binding
[3] = test system: CCCCCCCCCCCC(=O)Oc1ccc([N+](=O)[O-])cc1; assay: purified protein
[4] = test system: CCCCCCCCCCCC(=O)Oc1ccc2c(C)cc(=O)oc2c1; assay: purified protein
[5] = test system: CCCCCCCCCCCCCC(=O)Oc1ccc([N+](=O)[O-])cc1; assay: purified protein; details: myristate bound to Serβ[…]
PvdL module 1 (PvdLM1) = PvdL module 1 (PvdLM1) (Pseudomonas aeruginosa, UniProt Q9I157); assay: ATP/[…]-pyrophosphate exchange assay; assay type: biochemical

T1 sequence (Q9I194 24-193): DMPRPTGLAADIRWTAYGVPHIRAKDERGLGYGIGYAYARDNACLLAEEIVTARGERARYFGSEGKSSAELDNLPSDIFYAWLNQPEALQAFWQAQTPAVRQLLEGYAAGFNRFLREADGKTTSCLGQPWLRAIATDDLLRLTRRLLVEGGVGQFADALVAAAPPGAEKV
T1 sequence (Q9I194 217-762): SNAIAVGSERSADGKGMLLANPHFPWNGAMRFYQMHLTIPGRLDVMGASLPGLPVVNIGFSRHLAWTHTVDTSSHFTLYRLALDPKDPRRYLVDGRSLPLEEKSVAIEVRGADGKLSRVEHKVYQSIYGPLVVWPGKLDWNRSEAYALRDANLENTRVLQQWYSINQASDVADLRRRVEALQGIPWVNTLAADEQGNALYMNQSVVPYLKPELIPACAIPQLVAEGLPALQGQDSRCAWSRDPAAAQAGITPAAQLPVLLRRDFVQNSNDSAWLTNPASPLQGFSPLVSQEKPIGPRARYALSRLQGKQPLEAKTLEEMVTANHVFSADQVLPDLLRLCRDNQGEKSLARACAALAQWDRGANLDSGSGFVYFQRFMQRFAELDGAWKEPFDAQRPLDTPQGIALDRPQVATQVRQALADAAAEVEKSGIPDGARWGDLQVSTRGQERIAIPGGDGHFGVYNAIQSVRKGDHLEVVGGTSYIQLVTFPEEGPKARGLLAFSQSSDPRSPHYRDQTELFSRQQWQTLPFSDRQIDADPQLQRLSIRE

For O=c1onc2n1-c1cc(Br)ccc1OC2 [compound 922, 4H-8-Bromo-1,2,4-oxadiazolo[3,4-d]benz[b][1,4]oxazin-1-one], the IC50 (PvdQ [1]) was 145 µM.
With CCCCCCCC(=O)O [octanoate] the “crystal structure, co-purified ligand” value (PvdQ [2]) was “co-purifying octanoate molecule bound non-covalently in the fatty acid binding pocket”.
Molecule PvdQ (Pseudomonas aeruginosa PAO1) has a Km [3] of 11400 µM, a kcat [3] of 1.99 s⁻¹ and a kcat/Km [3] of 175 M⁻¹ s⁻¹. It also gave a Km [4] of 750 µM, a kcat [4] of 1.24 s⁻¹ and a kcat/Km [4] of 1660 M⁻¹ s⁻¹. For the same molecule, the Km [5] was 1400 µM, the kcat [5] was 0.74 s⁻¹ and the kcat/Km [5] was 521 M⁻¹ s⁻¹.
With CCCCCCCCCCCCCC(=O)O [C14, myristate] the “CPM (×10^3) ^a” value (PvdL module 1 (PvdLM1)) was 160.0 ± 14.1 CPM (×10^3).
